Source: patent US20140051645A1 (Pieris, published 2014)
One block for each molecule: values may come before it.

Columns and labels:
[1] = target: T1, human CTLA-4 on transfected CHO-K1 cells (human, UniProt P16410 36-223); assay: competition FACS on human CTLA4-transfected CHO-K1 cells; blocked ligand: biotinylated human B7.1 at 10 nM, detected with streptavidin-phycoerythrin
T1 construct: whole, on cells; also called human CTLA4-transfected CHO cells; CTLA-4 expressing CHO cells
T1 sequence (looked up): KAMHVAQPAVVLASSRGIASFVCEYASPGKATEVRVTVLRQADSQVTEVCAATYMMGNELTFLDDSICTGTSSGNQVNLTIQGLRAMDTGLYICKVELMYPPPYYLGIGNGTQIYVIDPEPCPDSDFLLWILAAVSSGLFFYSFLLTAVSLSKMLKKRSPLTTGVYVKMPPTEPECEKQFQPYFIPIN

[2] = target: T2, human CTLA-4-Fc (Chimerigen) (human, UniProt P16410 36-161, limits assumed); assay: SPR, Biacore T100, 25 C; CTLA4-Fc captured on anti-human IgG-Fc, mutein as analyte; 1:1 Langmuir fit
T2 construct: Bought fusion protein; also called hCTLA4-Fc; not shown: It was captured by an anti-human IgG-Fc antibody
T2 sequence (looked up): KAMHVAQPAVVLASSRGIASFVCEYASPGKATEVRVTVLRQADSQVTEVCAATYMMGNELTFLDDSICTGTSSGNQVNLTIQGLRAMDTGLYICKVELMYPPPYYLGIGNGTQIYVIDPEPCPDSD
Description: (§1) Real time affinity analysis was performed at 25° C. using a Biacore T100 system (GE Healthcare). Anti-human IgG-Fc antibody (Jackson ImmounoResearch Laboratories) was immobilized on a CM5 sensor chip using standard amine coupling chemistry, resulting in a ligand density of 8000 resonance units (RU). […] Subsequently, the Lcn2 muteins (SEQ ID: No 12 to SEQ ID NO: 17) were applied in an appropriate dilution series in HBS-EP at a flow rate of 30 μl/min. Regeneration of the derivatized chip surface was achieved by a combination of first basic (2.5 mM NaOH) and then acidic (10 mM glycine, pH 1.5) buffer, each for 8 and 16 s, respectively. […] To correct for buffer effects and baseline drift, double referencing was used throughout. Kinetic data evaluation was performed using the Biacore T100 Evaluation Software (v. 2.0.1) using the Langmuir 1:1 binding model and global fitting.

[3] = target: T3, murine CTLA4-Fc (R&D Systems) (mouse, UniProt P09793 36-162, limits assumed); assay: as above
T3 construct: Bought fusion protein; also called mouse CTLA4; not shown: It was captured by an anti-human IgG-Fc antibody
Description: as §1

[4] = target: T1, human CTLA-4 on transfected CHO-K1 cells; assay: competition FACS on human CTLA4-transfected CHO-K1 cells; competitor biotinylated human B7.1 at 10 nM
Description: Different concentrations of the Lcn2 muteins or, as a positive control, of the antibody BNI3 (BD Bioscience) were mixed with recombinant biotinylated human B7.1 (Ancell) at 10 nM final concentration and added to 100 000 of the CTLA-4 transfected CHO-K1 cells which were generated according to the description in example 16 of PCT/EP 2005/012640. Samples were incubated at 4° C. for 2 h, washed twice in PBS containing 2% w/v BSA, and detection of bound B7.1 was accomplished by incubation with streptavidin-phycoerythrin for 30 min at 4° C. Mean fluorescence intensities were determined by flow cytometry and fitted to a sigmoidal dose response model using Prism (GraphPad) as depicted in FIG. 4 to determine EC50 values for Lcn2 muteins from sequences of SEQ ID NO: 12 to SEQ ID NO: 17 which are summarized in Table 3.

[5] = target: T2, human CTLA-4-Fc (Chimerigen); assay: screening ELISA of crude lysates: mutein captured by T7 mAb, limited soluble human CTLA4-Fc; in some cases competition ELISA with mAb BNI3
Description: Therein, NGAL variants equipped with a T7 detection tag (Novagen) as well as a Strep-tag II affinity tag (IBA) were soluble expressed in a 96 well microtiter plate using the E. coli strain TG1/F with phNGAL37 SEQ ID NO: 10. This vector corresponds to phNGAL15 SEQ ID NO: 11 as described in the following example 4 with an N-terminal T7 tag consisting of 11 amino acids ([…]). Lipocalin mutein expression was induced overnight at 22° C. at 700 rpm with anhydrotetracycline (0.2 μg/ml) at an OD₅₅₀ of 0.6. Afterwards, cells were lysed (100 mM Na-borate, pH 8.0, 80 mM NaCl, 1 mM EDTA, 0.025% w/v lysozyme) for 1 h under agitation. To minimize non-specific binding in the subsequent ELISA screen, the crude cell lysates were supplemented with 2% w/v BSA and 0.1% v/v Tween 20 and tested in ELISA for binding to human CTLA-4-Fc (Chimerigen).
In a reverse ELISA approach soluble expressed muteins from the crude cell lysate were captured via immobilized T7 mAb (5 μg/ml, Novagen) on wells of black Fluotrac 600 ELISA plates (Greiner; 384 well). Neutravidin, 5 μg/ml, and 3% milk were used as negative control. […] Subsequently plates were washed five times and bound target was detected via an goat anti-human Fc monoclonal antibody-HRP conjugate (Jackson ImmunoResearch), diluted 1:5.000 in PBST/0.1. Therefore, QuantaBlu™ (Pierce; 1:2 diluted in PBS/T 0.1%) was used as fluorogenic HRP substrate. After 45 min of signal development at room temperature fluorescence was excited at a wavelength of 320 nm (±12.5 nm) and measured at 430 nm (±17.5 nm) in a GENiosPlus plate reader (Tecan).
In some cases a competition ELISA was carried out where CTLA4-Fc (2.5 μg/ml) was captured in ELISA plates via an immobilized mouse anti-human IgG Fc Gamma fragment-specific antibody (Jackson ImmunoResearch (5 μg/ml) and incubated for 1 h with a pre-mixture of the mutein extracts and different concentrations of a competitive CTLA4-specific mAb BNI3 (BD Bioscience) at concentrations of 30, 100, and 200 nM, respectively.

Kd [2]: 0.346 nM
koff [2]: 0.000186 s⁻¹
kon [2]: 539000 M⁻¹ s⁻¹
Kd [3]: 0.584 nM
koff [3]: 0.000129 s⁻¹
kon [3]: 221000 M⁻¹ s⁻¹
EC50 [4]: 9.5 nM
B1: hNGALM4 (designed binder)
chain: QDSTSDLIPAPPLSKVPLQQNFQDNQFHGKWYVVGLAGNRILRDDQHPMPMYATIYELKGDKSYNVTSVISSHKKCLYPIATFVPGSQPGEFTLGNIKSYGDKWSYLVRVVSTDYNQYAVVFFKHADSNYESFSITIYGRTKELASELKENFIRFSKSLGLPENHIVFPVPIDQCIDG

Kd [2]: 0.588 nM
koff [2]: 0.000197 s⁻¹
kon [2]: 335000 M⁻¹ s⁻¹
Kd [3]: 66.1 nM
koff [3]: 4.21 s⁻¹
kon [3]: 6.36e+07 M⁻¹ s⁻¹
EC50 [4]: 10.3 nM
B3: hNGALM6 (designed binder)
chain: QDSTSDLIPAPPLSKVPLQQNFQDNQFHGKWYVVGLAGNRILRSDQHPMPMYATIYELKGDKSYNVTSVISSHKKCLYSIATFVPGSQPGEFTLGNIKSYGDKESYLVRVVSTDYNQYAVVFFKYASDNDESFSITIYGRTKELASELKENFIRFSKSLGLPENHIVFPVPIDQCIDGSAWSHPQFEK

Kd [2]: 0.659 nM
koff [2]: 0.000517 s⁻¹
kon [2]: 784000 M⁻¹ s⁻¹
Kd [3]: 0.413 nM
koff [3]: 0.000108 s⁻¹
kon [3]: 261000 M⁻¹ s⁻¹
EC50 [4]: 11 nM
B4: hNGALM7 (designed binder)
chain: QDSTSDLIPAPPLSKVPLQQNFQDNQFHGKWYVVGLAGNRILRLDQHPMPMYATIYELKGDKSYNVTSVISSHKKCLYPIATFVPGSQPGEFTLGNIRSYGDKTSYLVRVVSTDYNQYAVVFFKHADTNYESFSITIYGRTKELASELKENFIRFSKSLGLPENHIVFPVPIDQCIDGSAWSHPQFEK

Kd [2]: 0.686 nM
koff [2]: 0.000388 s⁻¹
kon [2]: 565000 M⁻¹ s⁻¹
Kd [3]: 3.05 nM
koff [3]: 0.000907 s⁻¹
kon [3]: 298000 M⁻¹ s⁻¹
EC50 [4]: 6 nM
B5: hNGALM2 (designed binder)
chain: QDSTSDLIPAPPLSKVPLQQNFQDNQFHGKWYVVGLAGNRLLRDDQHPMDMYATIYELKGDKSYNVTSVISSHKKCLYPIATFVPGSQPGEFTLGNIKSYGDKWSYLVRVVSTDYNQYAVVFFKHADTNYESFSITIYGRTKELASELKENFIRFSKSLGLPENHIVFPVPIDQCIDGSAWSHPQFEK

Kd [2]: 0.74 nM
koff [2]: 0.000281 s⁻¹
kon [2]: 380000 M⁻¹ s⁻¹
Kd [3]: 0.32 nM
koff [3]: 0.000261 s⁻¹
kon [3]: 813000 M⁻¹ s⁻¹
EC50 [4]: 9 nM
B6: hNGALM5 (designed binder)
chain: QDSTSDLIPAPPLSKVPLQQNFQDNQFHGKWYVVGLAGNRILRSDQHPMRMYATIYELKGDKSYNVTSVISSHKKCLYTIATFVPGSQPGEFTLGNIKSYGDKWSYLVRVVSTDYNQYAVVFFKHADTNYESFSITIYGRTKELASELKENFIRFSKSLGLPENHIVFPVPIDQCIDGSAWSHPQFEK

Further lines, the molecule ahead of its results:

Molecule: BNI3 (antibody)
IC50 (read off the curve) [1]: 3 nM

B2: hNGALM3 (designed binder)
chain: QDSTSDLIPAPPLSKVPLQQNFQDNQFHGKWYVVGLAGNRILRQDQHPMLMYATIYELKGDKSYNVTSVISSHKKCLYPIATFVPGSQPGEFTLGNIKSYGDKVSYLVRVVSTDYNQYAVVFFKHADTNYESFSITIYGRTKELASELKENFIRFSKSLGLPENHIVFPVPIDQCIDGSAWSHPQFEK
Kd [2]: 0.46 nM
koff [2]: 0.000194 s⁻¹
kon [2]: 422000 M⁻¹ s⁻¹
Kd [3]: 0.672 nM
koff [3]: 0.000134 s⁻¹
kon [3]: 199000 M⁻¹ s⁻¹
EC50 [4]: 7.6 nM

B7: SEQ ID NO 14 (designed binder)
chain: MASMTGGQQMGQDSTSDLIPAPPLSKVPLQQNFQDNQFHGKWYVVGLAGNRILRDDQHPMPMYATIYELKGDKSYNVTSVISSHKKCLYPIATFVPGSQPGEFTLGNIKSYGDKWSYLVRVVSTDYNQYAVVFFKHADSNYESFSITIYGRTKELASELKENFIRFSKSLGLPENHIVFPVPIDQCIDG
notes: Screening construct in crude E. coli lysate, with T7 tag, mutein and Strep-tag II
binding result [5]: binds

B8: SEQ ID NO 15 (designed binder)
chain: MASMTGGQQMGQDSTSDLIPAPPLSKVPLQQNFQDNQFHGKWYVVGLAGNRILRSDQHPMRMYATIYELKGDKSYNVTSVISSHKKCLYTIATFVPGSQPGEFTLGNIKSYGDKWSYLVRVVSTDYNQYAVVFFKHADTNYESFSITIYGRTKELASELKENFIRFSKSLGLPENHIVFPVPIDQCIDG
notes: as for B7
binding result [5]: binds

B9: SEQ ID NO 13 (designed binder)
chain: MASMTGGQQMGQDSTSDLIPAPPLSKVPLQQNFQDNQFHGKWYVVGLAGNRILRQDQHPMLMYATIYELKGDKSYNVTSVISSHKKCLYPIATFVPGSQPGEFTLGNIKSYGDKVSYLVRVVSTDYNQYAVVFFKHADTNYESFSITIYGRTKELASELKENFIRFSKSLGLPENHIVFPVPIDQCIDG
notes: as for B7
binding result [5]: binds

B10: SEQ ID NO 17 (designed binder)
chain: MASMTGGQQMGQDSTSDLIPAPPLSKVPLQQNFQDNQFHGKWYVVGLAGNRILRLDQHPMPMYATIYELKGDKSYNVTSVISSHKKCLYPIATFVPGSQPGEFTLGNIRSYGDKTSYLVRVVSTDYNQYAVVFFKHADTNYESFSITIYGRTKELASELKENFIRFSKSLGLPENHIVFPVPIDQCIDG
notes: as for B7
binding result [5]: binds

B11: SEQ ID NO 16 (designed binder)
chain: MASMTGGQQMGQDSTSDLIPAPPLSKVPLQQNFQDNQFHGKWYVVGLAGNRILRSDQHPMPMYATIYELKGDKSYNVTSVISSHKKCLYSIATFVPGSQPGEFTLGNIKSYGDKESYLVRVVSTDYNQYAVVFFKYASDNDESFSITIYGRTKELASELKENFIRFSKSLGLPENHIVFPVPIDQCIDG
notes: as for B7
binding result [5]: binds
